Data on 1 molecule can be found in publication PMC2275150.

The target of the data set is T1, Cdc13-DBD (Saccharomyces cerevisiae, UniProt P32797 497-694).
T1 sequence: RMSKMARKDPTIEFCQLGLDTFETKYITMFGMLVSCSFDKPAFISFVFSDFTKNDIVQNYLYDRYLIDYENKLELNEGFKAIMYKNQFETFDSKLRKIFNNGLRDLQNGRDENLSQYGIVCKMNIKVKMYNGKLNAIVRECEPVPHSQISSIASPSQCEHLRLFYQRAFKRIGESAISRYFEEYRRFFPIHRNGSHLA
Put plainly: NMR.

GTGTGGGTGTG (ssDNA) [Tel11]: the binding result is given as “binds”.
